Experimental data published in article PMC8153049 (ACS chemical biology, 2020).
Values belong to the compound of their own block, whether it stands above or below them.

Key:
Experiment in all cases: steady-state kinetics, HPLC of amide product
Format in all cases: biochemical, Streptomyces sp. CB02304
PtmC^t = PtmC^t (Streptomyces platensis, UniProt D8L2W0); settings: 8 at 750 μM (partial saturation), 16 varied 10-200 μM; 50 mM MOPS pH 6.5
Nc1c(O)ccc(C(=O)O)c1O = settings: 16 at 250 μM
Nc1c(O)ccc(C(=O)S)c1O = settings: 16 at 250 μM, 9 varied 25-1500 μM, 50 mM MOPS pH 6.5, 30 °C
[1] = 8 varied 25-1500 μM, 50 mM MOPS pH 6.5, 30 °C
[2] = 8 varied 100-1000 μM, 50 mM MOPS pH 6.5

PtmC^t, sequence (D8L2W0 1-279 limits assumed): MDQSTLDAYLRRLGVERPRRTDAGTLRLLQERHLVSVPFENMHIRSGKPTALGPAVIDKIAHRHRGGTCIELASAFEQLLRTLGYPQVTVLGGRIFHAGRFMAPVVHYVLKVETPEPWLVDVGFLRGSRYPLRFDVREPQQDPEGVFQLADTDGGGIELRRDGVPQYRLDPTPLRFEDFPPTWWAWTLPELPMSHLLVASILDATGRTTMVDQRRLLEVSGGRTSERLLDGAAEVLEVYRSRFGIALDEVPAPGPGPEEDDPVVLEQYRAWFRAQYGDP

Km (PtmC^t): 23.7 ± 6.1 µM
Compound: CC(C)(COP(=O)(O)OP(=O)(O)OC[C@H]1O[C@@H](n2cnc3c(N)ncnc32)[C@H](O)[C@@H]1OP(=O)(O)O)[C@@H](O)C(=O)NCCC(=O)NCCSC(=O)CC[C@]1(C)C(=O)C=C[C@]23C[C@H]4C[C@H](O[C@@]4(C)C2)[C@H]31 [compound 16, platensicyl-CoA]

Compound: PtmC (Streptomyces platensis)
Km (Nc1c(O)ccc(C(=O)O)c1O; [1]): 372 ± 49 µM
kcat (Nc1c(O)ccc(C(=O)O)c1O; [1]): 1.54 ± 0.075 s⁻¹
Km (Nc1c(O)ccc(C(=O)S)c1O): 142 ± 54 µM
kcat (Nc1c(O)ccc(C(=O)S)c1O): 4.7 ± 0.067 s⁻¹

Compound: PtmC^t (Streptomyces platensis)
Km (Nc1c(O)ccc(C(=O)O)c1O; [2]): 375 ± 119 µM
kcat (Nc1c(O)ccc(C(=O)O)c1O; [2]): 0.318 ± 0.0417 s⁻¹
